Data taken from the supplement of paper PMC11780869.

Tested on: Bacillus subtilis
Assay: cleaved RNA product abundance (RNA/gDNA barcode ratio) relative to median wild-type variant (ratio to wild type); higher = more accumulation of the downstream cleavage product
Description: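 MPRA in B. subtilis. Mutagenized RNase Y cleavage-site regions (9% mutation rate) were inserted into a barcoded reporter mRNA (truncated aprE or tetM). Cells were grown in LB at 37°C to OD600 0.3. The cleaved RNA isoform was gel-purified and its barcodes counted; the RNA:gDNA barcode ratio was normalised to the median wild-type variant, and the median over barcodes is reported per variant. The printed sequence is the variable window only; the reporter flanks are not printed.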

[1] = experiment (reporter, strain, medium): exp 8a: truncated aprE reporter, strain BJT201 with 2% xylose (RNase J1 expressed), cleavage site: glnRA (positions -5 to +31 mutated)
[2] = experiment (reporter, strain, medium): exp 4a: truncated aprE reporter, strain BJT201 with 2% xylose (RNase J1 expressed), cleavage site: cggR-gapA (positions -7 to +36 mutated)
[3] = experiment (reporter, strain, medium): exp 2b: truncated aprE reporter, strain BJT200, cleavage site: cggR-gapA (positions -7 to +36 mutated)
[4] = experiment (reporter, strain, medium): exp 6: tetM reporter, strain 168, cleavage site: cggR-gapA (positions -7 to +36 mutated)

Sequence: CGACATGTCCCGCTTCTTTCATTACTCCGTTAGCAACTGTGTTGCTATATACATTTACCTTTTAAGAGGAGGAAT
- cleaved RNA product abundance [1]: 0.327

Sequence: CGACATGTCCCGCTTCTTTCATTAATCTGTTAGCAACTATTTTGCTATATACATTTACCTTTTAAGAGGAGGAAT
- cleaved RNA product abundance [1]: 1.77

Sequence: ACAGACGAAGGAGCCGCAAAGAATTTATTAAGGGATGAATAATCCCTCAATAAAAATATCTCTCACTTATTTAAA
- cleaved RNA product abundance [2]: 0.066

Sequence: CGACATGTCCCGCTTCTTTCATTAATCCGTTAGCAACGGTTGTGCTATATACATTTACCTTTTAAGAGGAGGAAT
- cleaved RNA product abundance [1]: 0.353

Sequence: CGACATGTCCCGCTTCTTTCATTAATCCGTTAGCAACTCTTTTTCTATATACATTTACCTTTTAAGAGGAGGAAT
- cleaved RNA product abundance [1]: 0.642

Sequence: ACAGACGAAGGAGCCGCAAAGAAGTTATTAAGGCATGAATAATCCATCAATATAAATATCTCTCACTTATTTAAA
- cleaved RNA product abundance [3]: 0.102
- cleaved RNA product abundance [2]: 0.114

Sequence: ACAGACGAAGGAGCCGCAAAGAAGTTATTAAGGGATGAATAATCACTAAATATAAATATCTCTCACTTATTTAAA
- cleaved RNA product abundance [2]: 0.142

Sequence: ACAGACGAAGGAGCCGCAAAGAAGTTATTAAGGGATGAATAATCACTCAAAATAAATATCTCTCACTTATTTAAA
- cleaved RNA product abundance [3]: 0.0846
- cleaved RNA product abundance [2]: 0.122

Sequence: ACAGACGAAGGAGCCGCAAAGAAGTTATTAAGGGATGAATAATCTCTCAATATAAATAACTCTCACTTATTTAAA
- cleaved RNA product abundance [3]: 0.645

Sequence: ACAGACGAAGGAGCCGCAAAGAAGTTAATAAAGGATGAATAATCCCTCAATATAAATATCTCTCACTTATTTAAA
- cleaved RNA product abundance [3]: 0.143
- cleaved RNA product abundance [2]: 0.215

Sequence: CGACATGTCCCGCTTCTTTCATTAATCCGTTAGCAACTGTTTTGTTATAAACATTTACCTTTTAAGAGGAGGAAT
- cleaved RNA product abundance [1]: 0.322

Sequence: ACAGACGAAGGAGCCGCAAAGAAGTTATTAAGGGATCAATAATCCCTCAATATAAATAACTCTCACTTATTTAAA
- cleaved RNA product abundance [2]: 0.687

Sequence: ACAGACGAAGGAGCCGCAAAGTAGTTATTAAGGGATGAATAACCCCTCAATATAAATATCTCTCACTTATTTAAA
- cleaved RNA product abundance [2]: 0.762

Sequence: ACAGACGAAGGAGCCGCTAAGAAGTTACTAAGGGATGAATAATCCCTCAATATAAATATCTCTCACTTATTTAAA
- cleaved RNA product abundance [3]: 0.186

Sequence: CGACATGTCCCGCTTCTTTCATTAATCCGTTAGCAACTGTATTGCTATATAAATTTACCTTTTAAGAGGAGGAAT
- cleaved RNA product abundance [1]: 0.849

Sequence: ACAGACGAAGGAGCCGCAAAGAAGTTATTAAGGCATGAATAATCCCTCGATATAAATATCTCTCACTTATTTAAA
- cleaved RNA product abundance [2]: 0.0814

Sequence: ACAGACGAAGGAGCCGCAAAGGACTTATTAAGGGATGAATAATCCCTCAATATAAATATCTCTCACTTATTTAAA
- cleaved RNA product abundance [2]: 0.173

Sequence: CGACATGTCCCGCTTCTTTCATTAATCCTTTAGCAACTATTTTGCTATATACATTTACCTTTTAAGAGGAGGAAT
- cleaved RNA product abundance [1]: 0.828

Sequence: ACAGACGAAGGAGCCGCAAAGAAGTAATTAAAGGATTAATAATCCCTCAATATAAATATCTCTCACTTATTTAAA
- cleaved RNA product abundance [2]: 0.183

Sequence: ACAGACGAAGGAGCCGCAAAGAAGTTATTTAGGGATGAATAATCCCTTAATATAAATATCTCTCACTTATTTAAA
- cleaved RNA product abundance [2]: 1.39

Sequence: CGACATGTCCCGCTTCTTTCATTAATCCGTTATCACCTGTTTTGCTATATACATTTACCTTTTAAGAGGAGGAAT
- cleaved RNA product abundance [1]: 0.198

Sequence: CGACATGTCCCGCTTCTTTCATTAATCCGTTAGCAACTGTCTTGCTATCTACATTTACCTTTTAAGAGGAGGAAT
- cleaved RNA product abundance [1]: 0.0931

Sequence: CGACATGTCCCGCTTCTTTCATTAATTCGTTAGCAACTGTTTTGCTATATACATATACCTTTTAAGAGGAGGAAT
- cleaved RNA product abundance [1]: 0.859

Sequence: ACAGACGAAGGAGCCGCACAGAAGTTATAAAGGGATGAATAATCCCTCAATATAAATATCTCTCACTTATTTAAA
- cleaved RNA product abundance [2]: 0.414

Sequence: ACAGACGAAGGAGCCGCAAAGAAGTTTTTAAGGGATGAATATTCCCTCAATATAAATATCTCTCACTTATTTAAA
- cleaved RNA product abundance [3]: 0.214
- cleaved RNA product abundance [2]: 0.341

Sequence: ACAGACGAAGGAGCCGCAAAGAAGTTATCAAGGGATGAATATTCCCTCAATATAAATATCTCTCACTTATTTAAA
- cleaved RNA product abundance [2]: 0.27

Sequence: CGACATGTCCCGCTTCTTTCATTAATCCGTTACCAACTGTTTTGCTATATACATTTTCCTTTTAAGAGGAGGAAT
- cleaved RNA product abundance [1]: 0.231

Sequence: CGACATGTCCCGCTTCTTTCATTAATCCGCAGGCAACTGTTTTTCTAAATACAAATACCTTTTAAGAGGAGGAAT
- cleaved RNA product abundance [1]: 0.213

Sequence: CGACATGTCCCGCTTCTTTCATTAATCCGTTAGAAACTGTTTTGCTATATACATTAACCTTTTAAGAGGAGGAAT
- cleaved RNA product abundance [1]: 0.374

Sequence: ACAGACGAAGGAGCCGCAAAGAAGTTATTAAGGGATGAATAATCCCTAAATATAAACATCTCTCACTTATTTAAA
- cleaved RNA product abundance [3]: 0.509
- cleaved RNA product abundance [2]: 0.57

Sequence: CGACATGTCCCGCTTCTTTCATTAATCCGTTATCAACTGTTATGCTATATACATTTACCTTTTAAGAGGAGGAAT
- cleaved RNA product abundance [1]: 0.24

Sequence: ACAGACGAAGGAGCCGCAAAGAAGTTATTAAGGGATGAAAAATCCCTCAAGATAAATATCTCTCACTTATTTAAA
- cleaved RNA product abundance [3]: 0.159
- cleaved RNA product abundance [2]: 0.314

Sequence: ACAGACGAAGGAGCCGCAAAGAAGTTATTAACCGATGAATAATCCCTCAATATAAATATCTCTCACTTATTTAAA
- cleaved RNA product abundance [3]: 0.0926
- cleaved RNA product abundance [2]: 0.0751

Sequence: ACAGACGAAGGAGCCGCAAAGAAGTTATTATCGGATGAATAATCCCTCAATATAAATATCTCTCACTTATTTAAA
- cleaved RNA product abundance [2]: 0.178

Sequence: ACAGACGAAGGAGCCGCAAAGAAGCTATTAAGCGATGAATAATCCCTCAATATAAATATCTCTCACTTATTTAAA
- cleaved RNA product abundance [2]: 0.0691

Sequence: CGACATGTCCCGCTTCTTTCATTAATCCGTTAGCAACTGTTTTGCTATATACATGTACCTTTTAAGAGGAGGAAT
- cleaved RNA product abundance [1]: 0.738

Sequence: ACAGACGAAGGAGCCGCTACGAAGTTATTAAGGGATGAATAATCTCTCAATATAAATATCTCTCACTTATTTAAA
- cleaved RNA product abundance [2]: 0.816

Sequence: ACAGACGAAGGAGCCGCAAATAAGTTGTTAAGGGATGAATAATCCCTCAATATAAATATCTCTCACTTATTTAAA
- cleaved RNA product abundance [2]: 0.458

Sequence: ACAGACGAAGGAGCCGCAAAGAAGTTATTAAGTGATAAATAATCCCTCAATATAAATATCTCTCACTTATTTAAA
- cleaved RNA product abundance [2]: 0.103
- cleaved RNA product abundance [4]: 0.113

Sequence: ACAGACGAAGGAGCCGCAAAGAATTTATTAAGGCATGAATAATCCCTCAATATAAATATCTCTCACTTATTTAAA
- cleaved RNA product abundance [3]: 0.1
- cleaved RNA product abundance [2]: 0.111

Sequence: ACAGACGAAGGAGCCGCAAAGAAGTTATTTAAGGATGAATAATCCCTCAATATAAATATCTCTCACTTATTTAAA
- cleaved RNA product abundance [3]: 0.125
- cleaved RNA product abundance [2]: 0.182

Sequence: ACAGACGAAGGAGCCGCAAAGAAGTTATTAAGGGATGAATAATCCCTCAATATAAATGTTTCTCACTTATTTAAA
- cleaved RNA product abundance [2]: 0.369

Sequence: ACAGACGAAGGAGCCGCAAAGAAGTGATTAAGGGATGAATAATCCCTCAATATAAATAACTCTCACTTATTTAAA
- cleaved RNA product abundance [2]: 0.522

Sequence: CGACATGTCCCGCTTCTTTCATTAATTCGTTAGCAACTGTTTTCCTATATACATTTACCTTTTAAGAGGAGGAAT
- cleaved RNA product abundance [1]: 0.485

Sequence: ACAGACGAAGGAGCCGCAAAGAAGTTATTAAGGGATGAAAAATCCCTCAATATAAATAACTCTCACTTATTTAAA
- cleaved RNA product abundance [2]: 0.632

Sequence: ACAGACGAAGGAGCCGCAAAGAAATTATTAAGGGATGAATAATCCCGCAATATAAATATCTCTCACTTATTTAAA
- cleaved RNA product abundance [2]: 0.214

Sequence: ACAGACGAAGGAGCCGCAAAGAAGTAATTAAGGGATGAATAATCACTCAATATAAATATCTCTCACTTATTTAAA
- cleaved RNA product abundance [2]: 0.109

Sequence: ACAGACGAAGGAGCCTCAAAGAAGTTATTAAGGGATGAATAATCCCTCAATATAAATATCTCTCACTTATTTAAA
- cleaved RNA product abundance [4]: 1.25

Sequence: ACAGACGAAGGAGCCGCAAAGAAGTTATTAAGGGATGTATAAACCCTCAATATAAATATCTCTCACTTATTTAAA
- cleaved RNA product abundance [3]: 0.448
- cleaved RNA product abundance [2]: 0.592

Sequence: ACAGACGAAGGAGCCGCAAAGAAGTTATTAAGGGATGAATAATCCCTTCAATATAAATATCTCTCACTTATTTAA
- cleaved RNA product abundance [2]: 0.904

Sequence: ACAGACGAAGGAGCCGCAAAGAAGTGATTAAGGTATGAATAATCCCTCAATATAAATATCTCTCACTTATTTAAA
- cleaved RNA product abundance [3]: 0.0827
- cleaved RNA product abundance [2]: 0.113

Sequence: CGACATGTCCCGCTTCTTTCATTAATCCGTTAGCAACTGTATTGCTATATACATTTAACTTTTAAGAGGAGGAAT
- cleaved RNA product abundance [1]: 1.13

Sequence: ACAGACGAAGGAGCCGCAAAGAAGTTATTAAGGGATGAATAATACCTCAATATAAATATCTCTCACTTATTAAAG
- cleaved RNA product abundance [2]: 0.148

Sequence: ACAGACGAAGGAGCCGCAAAGACGTTATTAAGGGATGACTAATCCCTCAATATAAATATCTCTCACTTATTTAAA
- cleaved RNA product abundance [3]: 0.561

Sequence: ACAGACGAAGGAGCCGCAAAGAAGTTATCAAGGGATGAATAATCCCTCAATATAATTATCTCTCACTTATTTAAA
- cleaved RNA product abundance [2]: 0.218

Sequence: ACAGACGAAGGAGCCGCAAAGAAGTTATTATGGGATGAATAATCCCTCAATATAAATATCTCTCACTTATTTAAA
- cleaved RNA product abundance [3]: 0.302
- cleaved RNA product abundance [2]: 0.407

Sequence: CGACATGTCCCGCTTCTTTCATTAATCCGTTAGCAACTGTTTTGCTATAAATATTTACCTTTTAAGAGGAGGAAT
- cleaved RNA product abundance [1]: 1.49

Sequence: ACAGACGAAGGAGCCGCAAAGAAGTTATTAAGGGTTGAATAATCCCTCAATATAAATATCTCTCACTTATTTAAA
- cleaved RNA product abundance [3]: 0.396
- cleaved RNA product abundance [2]: 0.483
- cleaved RNA product abundance [4]: 0.439

Sequence: CGACATGTCCCGCTTCTTTCATTAATCCGTTAGCAACTGTTTTGCTAAATTCATTTACCTTTTAAGAGGAGGAAT
- cleaved RNA product abundance [1]: 0.133
